Patent US20060024786A1, “WASP and N-WASP constructs and methods of expressing such constructs” (Cytokinetics, Inc., priority 2004, published 2006)

Tests used:
Arp2/3 complex = target: T1, Arp2/3 complex; assay: Arp2/3-mediated actin polymerization stimulated by WASP/N-WASP proteins; assay type: biochemical, human; settings: for Activate Arp2/3?: Table 2
T1 construct: prepared from an Arp2/3 source such as human platelets; from tissue; host or cells: cell extract, e.g. human platelets
Procedure: Samples containing candidate agents (individually or as mixtures) are placed into wells on a multi-well plate. Mix 1 is added to each of the wells and mixed with the candidate agent. A sample of Mix 2 is then introduced into each well and the resulting mixture thoroughly mixed. Typically, Mix 1 and Mix 2 are mixed in 1:1 ratio (e.g., 50 μl each of Mix 1 and Mix 2).
Actin polymerization is measured as a function of time by exciting pyrene at 365 nm and by detecting an increase in fluorescence emission at 407 nm. The change in fluorescence over time is utilized to determine a fluorescence parameter (e.g., maximal velocity, time to half maximal fluorescence intensity or area under the curve of a plot of fluorescence versus time).
In a second set of experiments, the ability of various truncated forms of WASP were compared to the activity of the full-length protein. The polymerization assays were conducted in the presence of 500 nM Cdc42, 2.5 nm purified Arp2/3 complex and 3.5 μM actin. FL-WASP, 105 WASP and the VCA (see Example 7) domain were tested. The results of these trials were plotted to obtain EC50 values. The results are provided in FIG. 6 and in the chart below.

[1] = tested on: Cdc42, PIP2, Nck and Rac1; assay: Regulation of WASP/N-WASP proteins by upstream regulators; assay type: biochemical; settings: Table 2
Source text: (§1) A second class of WASP and N-WASP proteins are those in which the WH-1 and PolyPro region have been at least partially removed. Specific examples of WASP and N-WASP proteins lacking at least a part or all of the WH1 and PolyPro regions include, but are not limited to, 213 miniWASP, 199 miniWASP and 105 miniWASP (see, FIGS. 3A and 3B). These three proteins each lack some or all of the WH-1 region, and the entire PolyPro region (approximately residues 309-414 of SEQ ID NO:2). The 213 miniWASP protein thus includes, for example, amino acid residues 213-308 and 415-501 from the full length WASP sequence (SEQ ID NO:2). 199 miniWASP includes residues 199-308 and 415-501 of SEQ ID NO:2). 105 miniWASP includes residues 105-308 and 415-501 of SEQ ID NO:2).
(§2) A fourth class of WASP and N-WASP proteins that are provided are deletion mutants in which the PolyPro region is maintained but an N-terminal region (e.g., WH1 domain) is at least partially removed. Some proteins in this class are ones that include the B, CRIB/GBD, PolyPro and VCA domains but in which some or all of the WH1 has been removed. One specific example is 98N-WASP, which includes amino acids 98-501 of SEQ ID NO:4 (also assigned SEQ ID NO:12). Another specific example is the 105 WASP protein, which includes amino acids 105-501 of SEQ ID NO:10 (see FIG. 3A and 3B). […] They can also activate actin nucleation by Arp2/3.

[2] = target: T2, Cdc42, PIP2, Nck and Rac1 (Homo sapiens, UniProt P60953, G12V); assay: as above; assay type: biochemical; settings: Cdc42 binds and activates the construct, which then activates Arp2/3 nucleation
T2 construct: made in house; host or cells: E. coli BL21(DE3) or BL21 STAR
T2 sequence (P60953 2-191 isoform P60953-1 G12V): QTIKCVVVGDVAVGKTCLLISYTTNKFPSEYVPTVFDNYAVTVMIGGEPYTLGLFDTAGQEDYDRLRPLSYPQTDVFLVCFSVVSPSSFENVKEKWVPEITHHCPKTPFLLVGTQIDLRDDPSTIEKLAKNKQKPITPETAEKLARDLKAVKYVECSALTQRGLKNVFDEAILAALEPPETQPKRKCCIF
Source text: as §1, §2

[3] = Solubility of purified full-length protein; assay type: physicochemical; settings: expressed in 293 cells, TAP-tag purification

B1: 98 N-WASP: N-WASP deletion mutant, amino acids 98-501 of SEQ ID NO:4; SEQ ID NO:12 (protein, listed as Homo sapiens)
chain: FVYNSPRGYFHTFAGDTCQVALNFANEEEAKKFRKAVTDLLGRRQRKSEKRRDPPNGPNLPMATVDIKNPEITTNRFYGPQVNNISHTKEKKKGKAKKKRLTKADIGTPSNFQHIGHVGWDPNTGFDLNNLDPELKNLFDMCGISEAQLKDRETSKVIYDFIEKTGGVEAVKNELRRQAPPPPPPSRGGPPPPPPPPHNSGPPPPPARGRGAPPPPPSRAPTAAPPPPPPSRPSVAVPPPPPNRMYPPPPPALPSSAPSGPPPPPPSVLGVGPVAPPPPPPPPPPPGPPPPPGLPSDGDHQVPTTAGNKAALLDQIREGAQLKKVEQNSRPVSCSGRDALLDQIRQGIQLKSVADGQESTPPTPAPTSGIVGALMEVMQKRSKAIHSSDEDEDEDDEEDFEDDDEWED
modifications: (1)..(408) 98N-WASP
- Activate Arp2/3? (Arp2/3 complex): Yes
- Regulated By Which Upstream Regulators? [1]: Cdc42, PIP2, Nck and Rac1

B2: 105WASP: WASP deletion mutant lacking the WH1 domain, amino acids 105-501; SEQ ID NO:10 (protein, listed as Homo sapiens)
chain: LVYSTPTPFFHTFAGDDCQAGLNFADEDEAQAFRALVQEKIQKRNQRQSGDRRQLPPPPTPANEERRGGLPPLPLHPGGDQGGPPVGPLSLGLATVDIQNPDITSSRYRGLPAPGPSPADKKRSGKKKISKADIGAPSGFKHVSHVGWDPQNGFDVNNLDPDLRSLFSRAGISEAQLTDAETSKLIYDFIEDQGGLEAVRQEMRRQEPLPPPPPPSRGGNQLPRPPIVGGNKGRSGPLPPVPLGIAPPPPTPRGPPPPGRGGPPPPPPPATGRSGPLPPPPPGAGGPPMPPPPPPPPPPPSSGNGPAPPPLPPALVPAGGLAPGGGRGALLDQIRQGIQLNKTPGAPESSALQPPPQSSEGLVGALMHVMQKRSRAIHSSDEGEDQAGDEDEDDEWDD
modifications: (1)..(398) 105WASP
- Activate Arp2/3? (Arp2/3 complex): Yes
- Regulated By Which Upstream Regulators? [1]: Cdc42, PIP2, Nck and Rac1

B3: 199 miniWASP: residues 199-308 and 415-501 of SEQ ID NO:2 (protein, listed as Homo sapiens)
chain: TVDIQNPDITSSRYRGLPAPGPSPADKKRSGKKKISKADIGAPSGFKHVSHVGWDPQNGFDVNNLDPDLRSLFSRAGISEAQLTDAETSKLIYDFIEDQGGLEAVRQEMRLPPALVPAGGLAPGGGRGALLDQIRQGIQLNKTPGAPESSALQPPPQSSEGLVGALMHVMQKRSRAIHSSDEGEDQAGDEDEDDEWD
modifications: (1)..(502) FL-WASP
- regulation by Cdc42 [2]: regulated by Cdc42

B4: 213 miniWASP: amino acid residues 213-308 and 415-501 of full length WASP (SEQ ID NO:2) (protein, listed as Homo sapiens)
chain: RGLPAPGPSPADKKRSGKKKISKADIGAPSGFKHVSHVGWDPQNGFDVNNLDPDLRSLFSRAGISEAQLTDAETSKLIYDFIEDQGGLEAVRQEMRLPPALVPAGGLAPGGGRGALLDQIRQGIQLNKTPGAPESSALQPPPQSSEGLVGALMHVMQKRSRAIHSSDEGEDQAGDEDEDDEWD
modifications: (1)..(502) FL-WASP
- regulation by Cdc42 [2]: regulated by Cdc42

B5: FL-N-WASP: full-length N-WASP, SEQ ID NO:4; expressed TAP-tagged in human 293 cells (protein, listed as Homo sapiens)
chain: MSSVQQQPPPPRRVTNVGSLLLTPQENESLFTFLGKKCVTMSSAVVQLYAADRNCMWSKKCSGVACLVKDNPQRSYFLRIFDIKDGKLLWEQELYNNFVYNSPRGYFHTFAGDTCQVALNFANEEEAKKFRKAVTDLLGRRQRKSEKRRDPPNGPNLPMATVDIKNPEITTNRFYGPQVNNISHTKEKKKGKAKKKRLTKADIGTPSNFQHIGHVGWDPNTGFDLNNLDPELKNLFDMCGISEAQLKDRETSKVIYDFIEKTGGVEAVKNELRRQAPPPPPPSRGGPPPPPPPPHNSGPPPPPARGRGAPPPPPSRAPTAAPPPPPPSRPSVAVPPPPPNRMYPPPPPALPSSAPSGPPPPPPSVLGVGPVAPPPPPPPPPPPGPPPPPGLPSDGDHQVPTTAGNKAALLDQIREGAQLKKVEQNSRPVSCSGRDALLDQIRQGIQLKSVADGQESTPPTPAPTSGIVGALMEVMQKRSKAIHSSDEDEDEDDEEDFEDDDEWED
modifications: TAP tag; (1)..(505) FL-N-WASP
notes: expressed TAP-tagged in human 293 cells
- stimulation of actin polymerization by the protein by itself (Arp2/3 complex; without upstream regulators, FIG. 5): only weakly stimulate actin polymerization
- solubility of purified protein [3]: completely soluble
